Assay results: PMC3447402

Biological target: acyl-carrier-protein synthase (AcpS) from Staphylococcus aureus (Staphylococcus aureus)
Assay: crystal structure

For “acyl-carrier-protein synthase (AcpS) from Staphylococcus aureus (enzyme)”, the stoichiometry N was 3.
